Laboratory results as given in the RNAGym collection of RNA variant scans (doi:10.1073/pnas.2313332121).

B1: TPR t1 (parent)
chain: GACCAAUCUGCCCUCAGAGCUCGAGAACAUCUUCGGAUGCAGAGGAGGCAGGCUUCGGUGGCGCGAUAGCGCCAACGUCCUCAACCUCCAAUGCAUCCCACCACAUGAUGAUGCCUGAAGAGCCUUGGUUUUUUG

Variants of: B1
Assay: polymerase ribozyme fitness, log enrichment relative to wild type (log ratio); higher = more active; in vitro selection for triplet polymerase activity
Outline: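 Fitness measures genotype enrichment against wild-type enrichment on a logarithmic scale, with inverse-variance-weighted averaging of replicates. The logarithm is base 2, and genotypes were kept only with ≥10 input reads and ≥1 read per output in Illumina sequencing. The sequenced libraries came from one triplicate in vitro selection round, including frozen incubation at −7 °C, of PCR-built, transcribed mutant libraries of each subunit of a heterodimeric triplet polymerase ribozyme.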

Going from GACCAAUCUGCACUAAGAGCUCGAGAACAUCUUCGGAUGCAGAGGAGGCAGGCUUCGGUGGCGCGAUAGCGCCAACGUCCUCAACCUCCAAUGCAUCCCACCACAUGAUGAUGCCUGAAGAGCCUUGGUUUUUUG to GACCAAUCUGCCCUCAGAGCUCGAGAACAUCUUCGGAUGCAGAGGAGGCAGGCUUCGGUGGCGCGAUAGCGCCAACGUCCUCAACCUCCAAUGCAUCCCACCACAUGAUGAUCCCUGAAGAGCUUUGGUUUUUUG, the “polymerase ribozyme fitness (log ratio)” value rises from -3.39 to -2.58.

First: GACCAAUCUGCCCUCAGAGCUCGAGAACAUCUUCGGAUGCAGAGGAGGCAGGCUUCGGUGGCGCGAUAGCGCCAACGUCCUCAAACUCCAAUGCAUCCCACCACAUGAUGAUGCCUGAAGAGCAUGGGUUUUUUG
Second: GACCAAUCUGCCCUCAGAGCUCGAGAACAUCUUCGGAUGCAGAGGAGGCAGGCUUCGGUGGCGCGAUAGCGCCAACGUCCUCAACCUCAAAUGCAUCCCACCACAUGAUUAUGCCUGAAGAGCCUUGGUUUUUUG
The “polymerase ribozyme fitness (log ratio)” value of the first is higher: -0.918 for the first, -3.66 for the second.

Going from GACCAAUCUGCCAUCAGAGCUCGAGAACAUCUUCGGAUGCAGAGGAGGCAGGCUUCGGUGGCGCGAUAGCGCCAACGUCCUCAACCUCCAAUGCAUCCCAUCACAUGAUGAUGCCUGAAGAGCCUUGGUUUUUUG to GACCAAUUUGCCCUCAGAGCUCGAGAACAUCUUCGGAUGCAGAGGAGGCAGGCUUCGGUGGCGCGAUAGCACCAACGUCCUCAACCUUCAAUGCAUCCCACCACAUGAUGAUGCCUGAAGAGCCUUGGUUUUUUG, the “polymerase ribozyme fitness (log ratio)” value rises from -2.13 to -0.224.

First: GACCAAUAGGCCCUCAGAGCUCGAGAACAUCUUCGGAUCCAGAGGAGGCAGGCUUCGGUGGCGCGAUAACGCCAACGCCCUCAACCUCCAAGGCAUCCCACCACAAGAUGAUGCCUGAAGAGCCUUGGUUUUUUG
Second: GACCAAUCUGCCCUCAGAGCUCGAGAACAUCUUCGGAUGCAGAGGAGGCAGGCUUCGGUGGCGCGAUAGCGCCAACGUCCUCAACCUCCAAAGCAUCCCACCACAUGAUGAUGCCUGAAAAGCCUUGGUUUUUUG
The “polymerase ribozyme fitness (log ratio)” value of the first is lower: -7.09 for the first, -2.17 for the second.

First: GACCAAUCUGCCCUCAGAGCUCGAGAACAUCUUCGGGUGCAGAGGAGGCAGGCUUCGGUAGCGCGAUAGCGCCAACGUCCUCAACCUCCAAUGCAUCCCACCACAUGAUGAUGCCUGAAGAGCCUUGGUUUUUUG
Second: GACCAAUCUGCCCUCAGAUCUCGUGAACAUCUUCGGAUGCCGUGGAGGCAGGCUUCGGUGGCGCGAUAGCGCCAACGUCCUCAACCUCCAAGGCAUCCCAGCACAUGAUUAUGCCUGAAGAGCCUUGGUUUUUUG
The “polymerase ribozyme fitness (log ratio)” value of the first is higher: -1.03 for the first, -6.86 for the second.

Compared with GACCAAUCUGCCCUCAGAUCUCGAGAACAUCUUCGGAUGCAGAGGACGCAGGCUUCGGUGGCGCGAUAGCGCCAACGUCCUCAACCUCCAAUGCAUUCCACCACAUGAUGAUGGCUGAAGAGCCUUGGUUUUUUG, GACCCAUCUGCCCUCAGAGCUCGAGAACAUCUUCGGAUGCAGAGGAGGCAGGCUUCGGUGGCGCGAUAGCGCCAACGUCCUCAACCUCUAAUGCAUCCCACCACAUGAUGAUGCCUGAAGAGCCUUGGUUUUUUG is higher in “polymerase ribozyme fitness (log ratio)” value: -2.97 for the first, -0.689 for the second.

First: GACCAAUCUGCCCUCAGAGCUCGAGAACAUCUUCGGAUGCAGAGGAGGCAGGAAUUGGUGGCGCGAUAGCGCCAACGUCCUCAACCUCCAAUGCAUCCCAUCACAUGAUGAUGCCUGAAGAGCCUUGGUUUUUUG
Second: GACGAAUCUGCCUUCAGAGCUCGAGAACAUCUUCGGAUGCAGAGGAGGCAGGUUUCGGUGGCGCGAUAGCGCCAACGUCCUCAACCUCCAAUGCAUCCCACCACAUGAUGAUGCGUGAAGUGCCUUGGUUUUUUG
The “polymerase ribozyme fitness (log ratio)” value of the first is lower: 0.471 for the first, 0.995 for the second.

First: GACCAAUCUACCCUCAGAGCUCGAGAACAUCUUCGGAUGCAGAGGAGGCAGGCUGCGGUGGCGCGAUACCGCCAACGUCCUCAACCUCCAAUGCAUCCCACCACAUGAUGAUGCCUGAAGAGCCUUGGUUUUUUG
Second: GACCAAUAUGCUGUCAGAGCUCGAGAACAUCUUCGGAUGCAGAGGAGGCAGGCUUCGGUGGCGCGAUAACGCCAACGUCCUCAACCUCCAAUGCAUCUCACCACAUGAUGAUGCCUGAAGAGCCUUGGUUUUUUG
The “polymerase ribozyme fitness (log ratio)” value of the first is higher: -1.36 for the first, -4.08 for the second.

Going from GACCAAUCUGCCCUCAGAGCUCGAGAACAUCUUCGGAUGCAGAGGAGGUAGGCUUCGGUGGGGCGAUAGCACCAACGUCCUCAACCUCCAAUGCAUCCCACCACAUGAUGAUGCCUGAAGAGCCUUGGUUUUUUG to GACCAAUCUGCUCUCAGAGCUCGAGAACAUCUUCGGAUUCAGAGGAGGCAGGCUACGGUGGCGCGAUAGCACCAACGUCCUCAACCUCCAAUGGAUCCCACAACAUGAUGAUUCCUGAAGAGCCUUGGUUUUUUG, the “polymerase ribozyme fitness (log ratio)” value falls from -1.5 to -6.81.

Compared with GACCAAUCUGCCCUCAGAGCUCGAGAACAUCUUCGGAUGCUGAGGAGGCCGGCUUCGGUGGCGCGAUAGCGCCAACGUCCUCAACCUCCAAUGCAUCCCACCACAUGAUGAUGCCUGAAGAGCCUUGGUUUUUUG, GACCAAGCUGCCCUCAGAGCUCGAGAACAUCUUCGGAUGCAGAGGAGUCAGGUUUCGGUGGCGCGAUAGCGCCAACGUCCUCAACCUCCAAUGCCUCCCACCACAUGAUGAUGCCUAAAGAGCCUUGGUUUUUUG is higher in “polymerase ribozyme fitness (log ratio)” value: -1.53 for the first, -1.11 for the second.

First: GACCAAUCUGCCCUCAGAGCUCGAGAACAUCUUCGGAUGCAUAGGAGGCAGGCUUCGGUGGCGCGAUAGCGCCAACGUCCUCAACCUCCAAUGCAUCCCACCACAUGAUGAAGCCUGAAGAGCCUUGGUUUUUUG
Second: GACCAAUCUGCCGUCAGAGCUCGAGAACGUCUUCGGAUGCAAAGGAGGCAGGCUUCGGUGGCGCGAUAGCGCCAACGUCCUCAACCUCCAAUGCAUCCCACCACAUGAUGAUGCCUGAAGAGCCUUGGUUUUUUG
The “polymerase ribozyme fitness (log ratio)” value of the first is higher: -0.57 for the first, -5.99 for the second.

Compared with GACCAAUCUGCCCUCAGAGCUCGAGAACAUCUUCGGAUGCAGAGGAGGCAGGCUUCGGUGGCGCGAUAGCGCUAACGUCCACAACCUCCAAUGCAUCCCACCACAUGAUGAUGCCGGAAGAGCCAUGGUUUUUUG, GACCAAUCUGCCCUCAGAGCUCGAGAACAUCUUCGGAUGCAGAGGAGGCAGGCUUCGGUGGCGCGAUAUCGCCAACGUCCUCAUCCUCCAAUGCAUCCCACCACAUGAUGAUGCCUGAAGAGCUUUGGUUUUUUG is higher in “polymerase ribozyme fitness (log ratio)” value: -4.02 for the first, 1.84 for the second.

Compared with GACCAAUCGGCCCUCAGAGCUCGAGAACAUCUUCGGAUGCAGAGGAGGCAGGCUUUGGUGGUGCGAUAGCGCCAACGUCCUCAACCUCCAAUGUAACCCACCACAUGAUGAUGCCUGAAGAGCCUUGGUUUUUUG, GACCAAUCUGCCCUCAGAGCUCGAGAACAUCUUCGGAUGCAGAGGAGGCAGGCUUCGGAGGCGCGAUAGGGCCAACGUCCUCAACCUCCAAUGCAUCCCACCACAUGAUGAUGCCUGAAGAGCCUUGGUUUUUUG is lower in “polymerase ribozyme fitness (log ratio)” value: -1.52 for the first, -5.27 for the second.

First: GACCAAUCUGCCCCCAGAGCUCGAGAACAUCUUCGGAUGCAGAGGAGGCAGGCUUCGGUGACGCGAUAGCGCCAACGUCCUCAACCUCCAAUGCAUCCCACCACAUGAUCAUGCCUGAAGAGCCUUGGUUUUUUG
Second: GACCAAUCUGUCCUCAGAGCUCGAGGACAUCUUCGGAUGCAGAGAAGGCAGGCUUCGAUGGCGCGAUAGCGCCAACGUCCUCAACCUCCAAUGCAUCCCACCACAUGAUGAUGCCUGAAGAGCCUUGGUUUUUUG
The “polymerase ribozyme fitness (log ratio)” value of the first is higher: -5.14 for the first, -5.7 for the second.

First: GACCAAUCUGCCCUAAGAGCUCGAGAACAUCUUCGGAUGCAGAGGAGGCAGGCUUCGGUGGCGCGGUAGCGCCAACGUCCUCAACCUCCAAUGCAUCCCACCACAUGAUGAUGCCUGAAGAGCCUUGGUUUUUUG
Second: GACCAAUCUGCCCUCAGAGCUCGAGAACAUCUUCGGAUGCAGAGGAGGCAGGCUUCGGUGGCGCGAUAGCGCCAACGUCCUCAACCUCCAUUGCAUCCCACCACAUGAUGAUGCCUGAAGAGCCUUUGUUUUUUG
The “polymerase ribozyme fitness (log ratio)” value of the first is higher: -2.15 for the first, -3.19 for the second.

Compared with GACCAAUCUGCCCUCAGAGCUCGAGAACAUCUUCGGAUUCGGAGAAGGCAGGCUUCGGUGGCGCGAUAGCGCCAACGUCCUCAACCUCCAAUGCAUCCCACCACAUGAUGAUGCCUGAGGAGCCUUGGUUUGUUU, GACCAAUCUGCCCUCAGAGCUCGAGAACAUCUUCGGAUGCAGAGGAGGCAGGCUUCGGUGGCGCGAUAGCGCUAACGUCUUCAACCUCCAAUGCAUCCCACCACAUGAUGAUGCCUGAAGAGCCUUGGUUUUUUG is higher in “polymerase ribozyme fitness (log ratio)” value: -2.12 for the first, -0.17 for the second.

Going from GACCAAUCUGCCCUCAGAGCUCGAGAACAUCUUCGGUUGCAGAGGAGUCAGGCUUCUGUGGCGCGAUAGCGCCAACGUCCUCAACCUCCAAUGCAUCCCACCACAUGAUGAUGCCUGAAGAGCCUUGGCUUUUUG to GACCAAUCUGCCCUCAAAGGUCGAGAACAUCUUCGGAUGCAGAGGAGGCAGGCUUCGGUGGCGCGAUAGCGCCAACGUCCUCAACCUCCAAUGCAUCCCACCACAUGAUGAUGCCUGAAGGGCCUUGGUUUUUUG, the “polymerase ribozyme fitness (log ratio)” value falls from -1.96 to -4.27.

First: GACCAAUCUGCCCUCAGAGCUCGAGAACAUCUUCGGAUGCAGAGGAAGCAGGCUUCGGUGGCGCGAUAGCGCCAAAGUCCUCAACCUCCAAUGCAUCCCACCACAUGAUGAUGCUUGAAGAGCCUUGGUUUUUUG
Second: GACCAAUCUGCCCUCAGAGCUCGAGAACAUCUUCGGAUGCAGAGGAGGCAGGCUUCGGUGGCGCGAUAGAGCCAACGUCCUCGAACUUCAAUGCAUCCCACCACAUGAUGAUGCCUGAAGAGCCUUGGUUUUUUG
The “polymerase ribozyme fitness (log ratio)” value of the first is lower: -3.07 for the first, -2.53 for the second.

First: GACCAAUCUGCGCUCAGAGCUCGAGAACAUCUUCGGAUGCAGAGGAGGCAGGCUUCGGUGGCGCGAUAGCGCCAACGUCCUCAACCUCCAAUGCAUCCCACCACAUGAUGAUGCCUGAAGUGCCUUGGUUUUUUG
Second: GACCAAUCUGCCCUCAGAGCUCGAGAACAUCUUCGGAUGCAGAGGAGGCAGGCUUCGGUGGUGCGAUAGCGCCAACAUCCUCAACCACCAAUGCAUCCCACCACAUGAUGUUGCCUGAAGAUCCUUGGUUUUUUG
The “polymerase ribozyme fitness (log ratio)” value of the first is higher: 1.78 for the first, -5.7 for the second.

Going from GACCAAUGUGCGCUCAGAGCUCGAGAACAUCUUCGGAUGCAGACGAGGCAGGCUUCGGUGGCGCGAUAGCGCCAACGUCCUCAACCUCCAAUGCAACCCACCACAUGAUGAUGCCUGAAGAGCCUUGGUUUUUUG to GACCAAUCUGCCCUCAGAGCUCGAGAACAUCUUCGGAUGCAGAGGAGGCAGGCUUCGGUGGCGCGAUAGCCCCAACGUCCUCAACCUCCAACGCAUCCCACCACAUGAUGAUGCCUGAAGAGCCUUGGUUUUUUG, the “polymerase ribozyme fitness (log ratio)” value falls from -0.546 to -2.76.

First: GACCACUCUACCCUCAGAGCUCGAGAACAUCUACGGAUGCAGAGGAGGAAGGCUUCGGUGGCGCGAUAGCGCCAACGUCCUCAACCUCCAAUGCAUCCCACCACAUGAUGAUGCCUGAAGUGCCUUGGUUUUUUG
Second: GACCAAUCUGCCCUCAGAGCUCGAGAACAUCUUCGGCUGCAGAGGAGGCCGGCUUCGGUGGCGCGAUAGCGCCAACGUCCUCAACCUCCAAUGCAUCCCACCACAUGAUGAUGCCUGAAGAGCCUUGGUUUUUUG
The “polymerase ribozyme fitness (log ratio)” value of the first is lower: -2.86 for the first, -0.281 for the second.
